Source: publication PMC10140031 (2023)

Target: human complement C3a (human, UniProt P01024 672-748)
Experiment: SPR

Sequence of human complement C3a (P01024 672-748): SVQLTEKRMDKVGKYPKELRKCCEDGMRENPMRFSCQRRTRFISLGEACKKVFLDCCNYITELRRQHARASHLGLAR

B1: His-ISG65_(18-363)-Avi, C-terminally biotinylated (domain or fragment)
chain: LLVIGSEDNRVPGDKKLTKEGAAALCKMKHLADKVAKERSQELKDRTQNFAGYIEFELYRIDYWLEKLNGPKGRKDGYAKLSDSDIEKVKEIFNKAKDGITKQLPEAKKAGEEAGKLHTEVKKAAENARGQDLDDDTAKSTGLYRVLNWYCITKEERHNATPNCDGIQFRKHYLSVNRSAIDCSSTSYEENYDWSANALQVALNSWEDVKPKKLESAGSDKNCNIGQSSESHPCTMTEEWQTPYKETVEKLRELEDAYQRGKKAHDAMLGYANTAYAVNTKVEQEKPLTEVIAAAKEAGKKGAKIIIPAAAPATPTNSTKNDDSAPTEHVDRGIATNETQVEVGID
modifications: biotin on the C-terminal Avi-tag (site-specific Avi-tag biotinylation)
- Kd: 18 µM
